This note sets out measurements from patent publication US20140322218A1 (Amgen, published 2014).

Holding throughout (experiment): FACS, transfected 293T
(Flow cytometry measures light scatter and fluorescence of single cells or particles in a stream.)

In experiment [1] the target is T1, caCDH19(1-42)::FLAG::caCDH19(43-770), on 293T cells (dog).
T1 construct: also called Ca EC1-5
T1 chain: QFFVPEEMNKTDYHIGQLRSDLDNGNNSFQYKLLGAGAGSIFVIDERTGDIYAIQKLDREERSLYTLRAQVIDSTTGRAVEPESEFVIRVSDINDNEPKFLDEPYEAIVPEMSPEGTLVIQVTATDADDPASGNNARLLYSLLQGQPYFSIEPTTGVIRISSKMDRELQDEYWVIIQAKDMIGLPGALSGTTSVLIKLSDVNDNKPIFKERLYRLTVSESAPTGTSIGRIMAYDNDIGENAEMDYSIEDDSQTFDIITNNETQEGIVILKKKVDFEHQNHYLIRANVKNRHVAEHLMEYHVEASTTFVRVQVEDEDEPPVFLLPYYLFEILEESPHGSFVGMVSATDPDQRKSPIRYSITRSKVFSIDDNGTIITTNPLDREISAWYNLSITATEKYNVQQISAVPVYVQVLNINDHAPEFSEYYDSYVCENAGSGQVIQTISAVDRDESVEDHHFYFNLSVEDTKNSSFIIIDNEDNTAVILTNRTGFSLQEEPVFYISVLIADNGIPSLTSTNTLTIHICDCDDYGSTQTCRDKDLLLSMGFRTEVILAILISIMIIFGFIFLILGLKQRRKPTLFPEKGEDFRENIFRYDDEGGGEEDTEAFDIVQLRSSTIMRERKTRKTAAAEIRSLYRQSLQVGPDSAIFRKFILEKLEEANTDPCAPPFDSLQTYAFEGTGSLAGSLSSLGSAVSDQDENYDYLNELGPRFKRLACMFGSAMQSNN
Description: (§1) The following binding assay was completed in presence of 2 mM CaCl2. […] Cells were then washed one time and the amount of cell associated Alexa647-labelled Ab was quantitated by flow cytometry. The experiments included mock transfected controls.

Experiment [2] addresses T2, rhCDH19(1-43)::FLAG::rhCDH19(44-141)::caCDH19(141-770), on 293T cells (rhesus macaque/dog chimera).
T2 construct: Entry holds leader (1-43), Flag tag and CDH19 part; leader left out; also called rh EC1 (dog backbone)
Description: as §1

Experiment [3] concerns the target T3, caCDH19(1-43)::FLAG::caCDH19(44-87)::rhCDH19(89-114)::caCDH19(115-770), on 293T cells (rhesus macaque/dog chimera).
T3 construct: also called rh EC1b (dog backbone)
T3 chain: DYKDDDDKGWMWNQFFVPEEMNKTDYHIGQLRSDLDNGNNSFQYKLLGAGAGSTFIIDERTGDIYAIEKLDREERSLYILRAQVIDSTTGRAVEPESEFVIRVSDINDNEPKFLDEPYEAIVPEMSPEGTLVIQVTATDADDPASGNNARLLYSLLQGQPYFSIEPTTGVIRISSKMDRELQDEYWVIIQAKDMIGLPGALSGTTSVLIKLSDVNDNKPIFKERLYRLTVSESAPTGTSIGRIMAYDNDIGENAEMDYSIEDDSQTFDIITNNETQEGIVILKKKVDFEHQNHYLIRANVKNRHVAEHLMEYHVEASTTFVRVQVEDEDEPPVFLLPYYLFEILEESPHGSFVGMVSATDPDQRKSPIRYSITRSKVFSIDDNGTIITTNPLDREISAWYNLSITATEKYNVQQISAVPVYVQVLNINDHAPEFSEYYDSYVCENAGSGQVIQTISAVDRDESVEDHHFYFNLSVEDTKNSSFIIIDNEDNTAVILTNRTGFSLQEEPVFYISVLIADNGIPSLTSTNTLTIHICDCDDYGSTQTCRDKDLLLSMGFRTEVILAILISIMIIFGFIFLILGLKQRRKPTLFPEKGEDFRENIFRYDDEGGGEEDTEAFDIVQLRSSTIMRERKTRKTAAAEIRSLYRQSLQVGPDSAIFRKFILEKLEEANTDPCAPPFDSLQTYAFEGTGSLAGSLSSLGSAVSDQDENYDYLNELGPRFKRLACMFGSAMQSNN
Description: as §1

In experiment [4] the target is T4, muCDH19(1-43)::FLAG::muCDH19(44-770)::huCDH19(271), on 293T cells (mouse/human chimera).
T4 construct: Entry holds leader (1-43), Flag tag and CDH19 part; leader left out; also called Hu EC3a
T4 chain: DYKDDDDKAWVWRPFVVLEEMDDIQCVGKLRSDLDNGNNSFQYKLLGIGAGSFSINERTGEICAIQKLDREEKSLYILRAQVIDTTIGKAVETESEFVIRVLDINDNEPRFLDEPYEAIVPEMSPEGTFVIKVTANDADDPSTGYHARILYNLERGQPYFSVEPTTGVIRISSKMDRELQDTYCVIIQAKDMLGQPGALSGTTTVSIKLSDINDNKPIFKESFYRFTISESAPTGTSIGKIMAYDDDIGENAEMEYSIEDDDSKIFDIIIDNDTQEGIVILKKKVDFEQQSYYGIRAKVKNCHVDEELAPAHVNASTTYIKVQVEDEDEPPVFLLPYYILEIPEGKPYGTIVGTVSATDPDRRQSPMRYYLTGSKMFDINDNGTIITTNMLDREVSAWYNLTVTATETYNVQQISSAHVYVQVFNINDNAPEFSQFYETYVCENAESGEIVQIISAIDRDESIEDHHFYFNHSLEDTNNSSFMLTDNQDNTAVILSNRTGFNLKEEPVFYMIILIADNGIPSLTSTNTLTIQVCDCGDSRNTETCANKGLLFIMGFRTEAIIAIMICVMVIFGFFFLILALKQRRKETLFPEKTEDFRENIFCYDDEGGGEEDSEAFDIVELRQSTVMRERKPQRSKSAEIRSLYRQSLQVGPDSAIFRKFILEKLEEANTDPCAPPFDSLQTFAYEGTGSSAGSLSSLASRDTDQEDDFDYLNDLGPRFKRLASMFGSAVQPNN

B1: hu anti-<huCDH19> 26D1.1 VH::huIgG1z / 26D1.1 VL::huLLC-C2 (Ab ID 13882) (antibody, V domains shown)
VH: QVQLVQSGAEVKKPGASVKVSCKASRYTFTSYYMSWVRQAPGQGLEWMGIIHPSGGDTTYAQKFQGRVTMTGDTSTSTVYMELSSLRSEDTAVYYCARGGIKLWLHFDYWGQGTLVTVSS
VL: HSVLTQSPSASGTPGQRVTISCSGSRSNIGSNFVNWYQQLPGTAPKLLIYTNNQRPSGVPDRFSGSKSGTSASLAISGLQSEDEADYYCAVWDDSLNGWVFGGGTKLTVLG
As to B1, the binding result is recorded as “no binding (tested: 5 ug/ml)” in experiment [1], “binds” in experiment [2] and “binds” in experiment [3].

B2: hu anti-<huCDH19> 4B10 VH::huIgG1z / 4B10 VL::huKLC (Ab ID 13590) (antibody, V domains shown)
VH: QVQLVESGGGVVQPGRSLRLSCAASGFTFSSYDMHWVRQAPGKGLEWVAVISYDGTNEYYADSVKGRFTISRDTSKNTLYLQMNSLRAEDTAVYYCARERYFDWSFDYWGQGTLVSVSS
VL: EIVLTQSPGTLSLSPGERATLSCRASQSVSNTYLAWYHQRPGQAPRLLIYGASSRATGIPDRFSGSGSGTDFALTISSLEPEDFAVYYCQQYSNSWTFGQGTKVEIKR
As to B2, in experiment [4], the binding result is recorded as “no binding (tested: 5 ug/ml)”.

B3: anti-CDH19 antibody 2G6 (Ab ID 13588) (antibody, human IgG1, lambda, V domains shown)
VH: QVQLVESGGGVVQPGRSLRLSCAASGFTFSSYGMHWVRQAPGKGLEWVAFIWYDGSNKYYADSVKDRFTISRDNSKNTLYLQMKSLRAEDTAVYYCARRAGIIGTIGYYYGMDVWGQGTTVTVSS
VL: SYELTQPPSVSVSPGQTASITCSGDRLGEKYTCWYQQRPGQSPLLVIYQDTKRPSGIPERFSGSNSGNTATLTISGTQAMDEADYYCQAWDSSTVVFGGGTKLTVLG
For B3, in experiment [4], the binding result is recorded as “binds”.

B4: hu anti-<huCDH19> 4A9 VH::huIgG1z / 4A9 VL::huLLC-C1 (Ab ID 13589) (antibody, V domains shown)
VH: QVQLQESGPGLVKPSETLSLTCTVSGGSISGYYWSWIRQPPGKGLEWFAYFSYSGSTNYNPSLKSRVTLSVDTSKNQFSLKLSSVTAADTAVYYCARNWAFHFDFWGQGTLVTVSS
VL: QSVLTQPPSVSGAPGQRVTISCTGSSSNIGTGYAVHWYQQFPGTAPKLLIYGNNNRPSGVPDRFSGSKSGTSASLAITGLQAEDEADYYCQSYDSRLSGWVFGGGTKLTVLG
notes: Recombinant fully human IgG1
B4: the binding result is “no binding (tested: 5 ug/ml)” in experiment [1], “binds” in experiment [2] and “no binding (tested: 5 ug/ml)” in experiment [3].
